Measurements from patent US5693476.

What was measured:
[1] = biological target: GST-syntaxin 1A deletion mutant Syn 1A17 (amino acids 4-240) (Schistosoma japonicum; rat); assay: 20S complex on GST-Syn 1A17 beads, ATP and Mg++, Western blot densitometry
[2] = biological target: GST-syntaxin 1A H3 domain construct Syn 1A16 (amino acids 191-266) (Schistosoma japonicum; rat); assay: 20S complex on GST-Syn 1A16 beads, ATP and Mg++, Western blot densitometry
[3] = biological target: GST-syntaxin 1A H3 domain construct Syn 1A16 (amino acids 191-266) (Schistosoma japonicum; rat); assay: 20S complex assembly on GST-syntaxin beads with all four proteins together, ATP, 18° C. overnight MgCl2, Western blot densitometry, FIG. 6B
[4] = biological target: GST-syntaxin 1A cytoplasmic domain fusion protein (Syn 1A11, amino acids 4-266), immobilized on glutathione agarose beads (Schistosoma japonicum; rat); assay: as above
[5] = biological target: GST-syntaxin 1A deletion mutant Syn 1A13 (amino acids 4-221) (Schistosoma japonicum; rat); assay: as above
[6] = biological target: GST-syntaxin 1A deletion mutant Syn 1A17 (amino acids 4-240) (Schistosoma japonicum; rat); assay: as above
[7] = biological target: GST-syntaxin 1A deletion mutant Syn 1A6 (amino acids 4-190) (Schistosoma japonicum; rat); assay: as above
[8] = biological target: GST-syntaxin 1A cytoplasmic domain fusion protein (Syn 1A11, amino acids 4-266), immobilized on glutathione agarose beads (Schistosoma japonicum; rat); assay: 20S complex assembly on GST-syntaxin beads with SNAP-25, VAMP, α-SNAP and NSF added together, ATP, 25° C., Western blot densitometry, FIG. 6A
[9] = biological target: GST-syntaxin 1A H3 domain construct Syn 1A16 (amino acids 191-266) (Schistosoma japonicum; rat); assay: 20S complex assembly on GST-syntaxin beads with all four proteins together, ATPγS, 18° C. overnight MgCl2, Western blot densitometry, FIG. 6B
[10] = biological target: GST-syntaxin 1A cytoplasmic domain fusion protein (Syn 1A11, amino acids 4-266), immobilized on glutathione agarose beads (Schistosoma japonicum; rat); assay: as above
[11] = biological target: GST-syntaxin 1A deletion mutant Syn 1A13 (amino acids 4-221) (Schistosoma japonicum; rat); assay: as above
[12] = biological target: GST-syntaxin 1A deletion mutant Syn 1A17 (amino acids 4-240) (Schistosoma japonicum; rat); assay: as above
[13] = biological target: GST-syntaxin 1A deletion mutant Syn 1A6 (amino acids 4-190) (Schistosoma japonicum; rat); assay: as above
[14] = biological target: GST-syntaxin 1A cytoplasmic domain fusion protein (Syn 1A11, amino acids 4-266), immobilized on glutathione agarose beads (Schistosoma japonicum; rat); assay: 20S complex assembly on GST-syntaxin beads with SNAP-25, VAMP, α-SNAP and NSF added together, ATPγS, 25° C., Western blot densitometry, FIG. 6A
[15] = biological target: GST-syntaxin 1A (Syn1A11) point mutant 12 (four point mutations) (Schistosoma japonicum; rat); assay: GST-syntaxin point mutant on glutathione beads, soluble ligand, Western blot densitometry, FIG. 5B
[16] = biological target: GST-syntaxin 1A (Syn1A11) point mutant 13 (four point mutations) (Schistosoma japonicum; rat); assay: as above
[17] = biological target: GST-syntaxin 1A (Syn1A11) point mutant 34 (Schistosoma japonicum; rat); assay: as above
[18] = biological target: GST-syntaxin 1A (Syn1A11) point mutant 45 (Schistosoma japonicum; rat); assay: as above
[19] = biological target: GST-syntaxin 1A (Syn1A11) point mutant M1: R198A, I202A (Schistosoma japonicum; rat); assay: as above
[20] = biological target: GST-syntaxin 1A (Syn1A11) point mutant M2: L205A, I209A (Schistosoma japonicum; rat); assay: as above
[21] = biological target: GST-syntaxin 1A (Syn1A11) point mutant M3: L212A, F216A (Schistosoma japonicum; rat); assay: as above
[22] = biological target: GST-syntaxin 1A (Syn1A11) point mutant M4: V223A, Q226A (Schistosoma japonicum; rat); assay: as above
[23] = biological target: GST-syntaxin 1A (Syn1A11) point mutant M5: I230A, I233A (Schistosoma japonicum; rat); assay: as above
[24] = biological target: GST-syntaxin 1A (Syn1A11) point mutant M6: A240V, V244A (Schistosoma japonicum; rat); assay: as above
[25] = biological target: GST-syntaxin 1A cytoplasmic domain fusion protein (Syn 1A11, amino acids 4-266), immobilized on glutathione agarose beads (Schistosoma japonicum; rat); assay: GST-syntaxin 1A (wild type) on glutathione beads, soluble ligand, Western blot densitometry, FIG. 5B
[26] = biological target: GST-syntaxin 1A deletion mutant Syn 1A4 (amino acids 8-76) (Schistosoma japonicum; rat); assay: GST-syntaxin deletion mutant on glutathione beads, soluble ligand, Western blot densitometry; FIG. 4C row 1 from top, row label only in the figure (assigned by Table 1 order and paragraph 328)
[27] = biological target: GST-syntaxin 1A deletion mutant Syn 1A5 (amino acids 4-114) (Schistosoma japonicum; rat); assay: GST-syntaxin deletion mutant on glutathione beads, soluble ligand, Western blot densitometry; FIG. 4C row 2 from top, row label only in the figure (assigned by Table 1 order and paragraph 328)
[28] = biological target: GST-syntaxin 1A deletion mutant Syn 1A6 (amino acids 4-190) (Schistosoma japonicum; rat); assay: GST-syntaxin deletion mutant on glutathione beads, soluble ligand, Western blot densitometry; FIG. 4C row 3 from top, row label only in the figure (assigned by Table 1 order and paragraph 328)
[29] = biological target: GST-syntaxin 1A deletion mutant Syn 1A13 (amino acids 4-221) (Schistosoma japonicum; rat); assay: GST-syntaxin deletion mutant on glutathione beads, soluble ligand, Western blot densitometry; FIG. 4C row 4 from top, row label only in the figure (assigned by Table 1 order and paragraph 328)
[30] = biological target: GST-syntaxin 1A deletion mutant Syn 1A17 (amino acids 4-240) (Schistosoma japonicum; rat); assay: GST-syntaxin deletion mutant on glutathione beads, soluble ligand, Western blot densitometry; FIG. 4C row 5 from top, row label only in the figure (assigned by Table 1 order and paragraph 328)
[31] = biological target: VAMP 2 cytoplasmic domain (amino acids 1-94), recombinant, immobilized on the SPR flow cell (rat); assay: SPR (BIAcore), VAMP 2 cytoplasmic domain immobilized
[32] = biological target: VAMP 2 cytoplasmic domain (amino acids 1-94), recombinant, immobilized on the SPR flow cell (rat); assay: SPR (BIAcore), VAMP 2 cytoplasmic domain immobilized; KD = kd/ka

Sequence of His-tagged NSF (N-ethylmaleimide-sensitive factor), soluble recombinant (P18708 whole entry): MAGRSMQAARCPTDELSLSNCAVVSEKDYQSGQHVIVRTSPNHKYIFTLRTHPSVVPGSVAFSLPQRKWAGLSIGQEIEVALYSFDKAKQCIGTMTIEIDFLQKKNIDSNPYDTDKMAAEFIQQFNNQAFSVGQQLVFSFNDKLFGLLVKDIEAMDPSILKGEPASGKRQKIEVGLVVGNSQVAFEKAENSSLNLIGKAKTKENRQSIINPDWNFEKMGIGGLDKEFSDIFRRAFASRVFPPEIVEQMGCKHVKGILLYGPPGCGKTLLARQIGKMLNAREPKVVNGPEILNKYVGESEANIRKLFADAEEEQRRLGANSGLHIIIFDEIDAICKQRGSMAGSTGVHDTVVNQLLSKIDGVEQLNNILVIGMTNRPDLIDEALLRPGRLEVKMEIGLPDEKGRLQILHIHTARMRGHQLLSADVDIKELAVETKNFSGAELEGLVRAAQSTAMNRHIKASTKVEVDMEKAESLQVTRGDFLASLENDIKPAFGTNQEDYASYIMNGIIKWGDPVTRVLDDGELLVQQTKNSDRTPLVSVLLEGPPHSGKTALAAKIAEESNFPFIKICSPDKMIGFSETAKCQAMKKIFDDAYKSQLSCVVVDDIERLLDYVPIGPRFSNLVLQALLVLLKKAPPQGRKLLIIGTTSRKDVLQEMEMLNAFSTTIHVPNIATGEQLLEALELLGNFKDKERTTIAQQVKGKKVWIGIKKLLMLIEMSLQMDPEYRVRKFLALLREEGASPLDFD
Sequence of VAMP 2 cytoplasmic domain (amino acids 1-94), recombinant, immobilized on the SPR flow cell (rat) (chain, as listed by the source): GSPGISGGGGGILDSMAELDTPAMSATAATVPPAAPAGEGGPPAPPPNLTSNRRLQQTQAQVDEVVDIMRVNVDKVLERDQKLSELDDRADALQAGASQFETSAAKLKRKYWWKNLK
Sequence of syntaxin 1A carboxyl-terminal domain (amino acids 194-267), soluble recombinant (chain): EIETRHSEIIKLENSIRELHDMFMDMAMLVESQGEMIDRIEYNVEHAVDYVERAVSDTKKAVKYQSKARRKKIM

Substance: His-tagged NSF (N-ethylmaleimide-sensitive factor), soluble recombinant (from UniProt P18708) (enzyme)
- percent dissociated in the presence of ATP and Mg++ [1]: 30%
- percent dissociated in the presence of ATP and Mg++ [2]: 11%
- densitometry pixel value [3]: 357 pixel value
- densitometry pixel value [4]: 92 pixel value
- densitometry pixel value [5]: 12 pixel value
- densitometry pixel value [6]: 198 pixel value
- densitometry pixel value [7]: 0 pixel value
- densitometry pixel value [8]: 362 pixel value
- densitometry pixel value [9]: 319 pixel value
- densitometry pixel value [10]: 163 pixel value
- densitometry pixel value [11]: 46 pixel value
- densitometry pixel value [12]: 295 pixel value
- densitometry pixel value [13]: 0 pixel value
- densitometry pixel value [14]: 1590 pixel value

Substance: n-sec1, soluble recombinant (from UniProt P61765)
- densitometry pixel value [15]: 618 pixel value
- densitometry pixel value [16]: 79 pixel value
- densitometry pixel value [17]: 353 pixel value
- densitometry pixel value [18]: 7 pixel value
- densitometry pixel value [19]: 522 pixel value
- densitometry pixel value [20]: 779 pixel value
- densitometry pixel value [21]: 554 pixel value
- densitometry pixel value [22]: 623 pixel value
- densitometry pixel value [23]: 15 pixel value
- densitometry pixel value [24]: 687 pixel value
- densitometry pixel value [25]: 1070 pixel value
- densitometry pixel value [26]: 0 pixel value
- densitometry pixel value [27]: 0 pixel value
- densitometry pixel value [28]: 0 pixel value
- densitometry pixel value [29]: 84 pixel value
- densitometry pixel value [30]: 2450 pixel value

Substance: syntaxin 1A carboxyl-terminal domain (amino acids 194-267), soluble recombinant
- koff [31]: 0.0022 s⁻¹
- kon [31]: 470 M⁻¹ s⁻¹
- Kd [32]: 4.7 µM
